{"source": "the DeepSol protein solubility set"}
{"assay": "soluble on expression in E. coli; label from the status in PepcDB or PDB records"}
{"sequence": "MRYSLKQLAVFDAVADCGSVSQAADKLALTQSATSMSLAQLEKMLGRPLFERQGKQMALTHWGMWLRPKAKRLLQDAQQIEMGFYDQHLLSGEIRLGASQTPAEHLVPDLISIIDSDFPEIRISLGVKSTKGVIEGVLDYKYDLGIIEGRCDDNRIYQEVWCRDHLTIVASAHHPFAKRESVSLAQLEQAKWVLREQGAGTRNIFDSVIHPLIPDLDVWREYEHVPVLRTLVANGPYLTCLPYLDVERFIESGLLVALNVPELNMERTLSFIWRADMEENPLAECIKREGLRMMKGKPSIL", "soluble on expression in E. coli": "not soluble"}
{"sequence": "MSAAEGAVVFSEEKEALVLKSWAIMKKDSANLGLRFFLKIFEIAPSARQMFPFLRDSDVPLETNPKLKTHAVSVFVMTCEAAAQLRKAGKITVRETTLKRLGGTHLKYGVADGHFEVTRFALLETIKEALPADMWGPEMRNAWGEAYDQLVAAIKQEMKPAE", "soluble on expression in E. coli": "soluble"}
{"sequence": "MSAAPGTISPPARELKTSAICGYLHRIEVRSIGLITRRRYWFALCDSTPYLYWYKDSDDIKCIGRVSLSGAAFTYDPREKGRFEIHSNNEVIALECSSDKQRNEWMKALQSTRKRSWKATKSKSDSSLDISSLTGRNSSSVLEECSSPSPVPPPRSPKPKKRTQFLTEEETDAETSSDVPHSSEETAEVVEDTDNTKIPAEGSATEWYLNPNGQLNERSLQMPKTIESPETVLKRLADQSIEAPFRAIRRNLSTWSRSRQNTSDEPVVGSRKGTVSSVDLTPEEKVIELSDKVSSLEEVVDSLRAALLLAQRNNEALQKIEDMGDNKEEMREYILEKERQVTELHISNSMNARRVRDLEDQNVRLEDTINDLQQSVEAFRESLRTKEELILRMCEEENREDLLGSISERSSNIPADANGLVSDVEVPEGILVDVSSVDCEEATRKVLDEENVRDIGELQDLVEGYRTQNQFLNAEIVQLHAITQSLEDREKKLIRQNFDLEACYYQLKSRYLMVLNHFKSPTKPGKIMEPGVLKELLEESARTPRESQQNLTDQLGFYKKDDFSESDDLLDTATFYMKKAGDVVEATKLEQSEEYMKWLQSWDAFLVNNTVSRQTAIMSSPDLKTLIRTGVPPAYRGRVWKIIVTHWVKDKQAELGNGYYQSMLRKAGTKKQDGSYDAAIKQIDLDLARTLPTNKLFDEPDSANIEKLRNVLYAFRYHNSHVGYCQGLNRLAAIALLNLDEQDSFWFLVACVEHLQPEGYYTSSLIGAVADQKVLRDLVAEKLPKLAAHLRALEVDLSLFALSWFLTCFVDVLPHSIYLTIFDAFLYEGNKVLFRFALALFKICEPHVLQCKTIGTVHQCLSKAQEHIIDFKSLAQVAFNELNPFPQKTIETKRQLYLTQLKDTGHCM", "soluble on expression in E. coli": "not soluble"}
{"sequence": "MSAEKSSADTAKKTLTIYSTMSTDSERDTFRKLAAAFEKEHSDIHVSLHFPGNDYENMMRVRMAANDLPDLFDTHGWGKIRYGEYTADLRDMKWTQDLDPNLNSILKNKSGKVYAYPINQAKDGLAYNRNILDRYGIAPPETMDDFIKALRTIKEKSKGSIVPFWFAGYDKSSFAQYYDQFATPLLITDPAHNEKKQLINGTFQWSKFTYLSEILKQMQKEKLINIDAVTAKKSQLIELMAQNKIAFTMQGGTLGQDVAQINPNVKVGIIPTPAIHPGDDPIWIGGERYTLAAWKDSPQLKEAKDFIAFMARPANAKQMAEATSLPSGLTNVKADIFYANDYEYYQDVKVEPYFDRLYLPNGMWDVLGTVGQELAADILAPQDISQKLGREYKRLREQSETQGAENNELEHHHHHH", "soluble on expression in E. coli": "soluble"}
{"sequence": "MSAEVQESSGKRGKGKQKKMTVRVDFTPMVDMNMLLITFFMLCTTLSKPQTMEISMPSNDKDITEQQKSMVKASQAITLLLGADNKLYYYEGEPNYKDYTSLKETSYGASGLRAVLLQKNAAAVNQVRALKQQKLDLKITDDEYKKKVSEIKSGKNTPTVIIKATDDASYMNLIDALDEMQICNIGKYVITDIAEADEFLIKNYDAKGELSQNLADK", "soluble on expression in E. coli": "not soluble"}
{"sequence": "MSAFQPTIKRRESTKIYVGNVPIGGDAPIAVQSMTNTRTTDVEATVAQIKSLERVGADIVRVSVPTMDAAEAFKQIKQQVNVPLVADIHFDYRIALKVAEYGVDCLRINPGNIGREDRVRAVVDCARDKNIPIRIGVNAGSLEKDLQEKYGEPTPEALLESALRHVEILDRLNFDQFKVSVKASDVFLAVESYRLLAKAIKQPLHLGITEAGGARAGAVKSAVGLGMLLAEGIGDTLRVSLAADPVEEIKVGFDILKSLRIRSRGINFIACPTCSRQEFDVIGTVNALEQRLEDIITPMDVSIIGCVVNGPGEALVSDLGVTGGNKKSGYYLDGERQKERFDNEDIVNQLEAKIRAKVARQDPKNRII", "soluble on expression in E. coli": "not soluble"}
{"sequence": "MSAKIKAWSSNAEKLNSKRKKMEIREELFPSTTCSSSPQANQEISSEDRNSHHPDIASSSSATTCRSSNCFNMDEGILTRDVEMDFSDEIPTFSHNRFSNPVFPPTPSRNSFSTPRVRIISNVEQIPQIKMLRLTIERLKNEKMKYQKKYKSGMAVDFLSKCGLSLSQMEKIKNYLTNSIGYDLLPLVKNTRDLSIQLSMISSFKVSTSFDNKGKVITIVQCMKIAEVLAYRIELLCNSNQFVDDGYTKGVIKIGVVGDAGGGSTKHVMVIAVYDGSDNYSCLKKFIPDVLEQLGKLTKIRYLDKGVQKTAKIVQIATGDCKFQFDILGHQGHSSHNFCFKCFAQNPRGAEERMKIKDMNVDETFHPRTIDLYKACCTPLLPHVAIMFYLIPLLHIIMGIFDKYIFNPLWKYSVTLDNTTCFPILKTRKATLKNAVNLIKSAEEKYQAATGKMKLESHAELKALQSEKLLLDTIVNGTPGGTLEKMEQCWAKFGADKQAWFQSFCGNHLKLLLTPAIVEETFNIFGPNLCPMLLGLKSAMGKLSTIMSLSGNKFLNDSDVLILQNSIRGFVEDLKVAVPEETIILKLHLVVYHAPQMAKDVRNIGRITEPGVESVHAIFNALERRFCNYRDKKRRYIHVLRELMCRNIMNDMTMNTSIPGLSIVPKDATVLPISSQNDLRDPKVVIRDVTAAQKRKNLAKKKINFSSKKRLPQSTKSRNAVPDFSQNVQTSIAFGGNSTKIGFRGLPSNALSRPNPMAITQTCSTSQPITRSHPLVAPPVSYQLPKCSNSLAEKIRASCGQARRSAAESSSTESHVDTNSKKKVYRLKFVQKSREIPKK", "soluble on expression in E. coli": "not soluble"}
{"sequence": "MSALDCPAGTVLFRAGQDCPGFLRLDEGSIRVTLTAANGREVVLYRVRPGDVCLQTFACLTEGRSYSAEGVAETRVRGHLMSHADFRTALARDEAFRTEVMQAVARRFADFEHLVEDVALTGFDTRLARVLLRLAKGDTVAATHEALAAETASGRAFVSRRLAEFARQGLVELARGRVTLCDRSGLERIAAEER", "soluble on expression in E. coli": "not soluble"}
{"sequence": "MSANGCCCCGGVDSREQKLNEIIEKYKNTKGALVPVLHEAQEVYGYLPLEVQKKIAEGLNIPLAEVYGVVTFYTQFSLNPKGKYKIQVCMGTACYVKGSGAILEKLKEKLEIDVGECTSDGKFSLEACRCIGACGLAPVIMINDDVYGRLVPDDIEGIIEKYKKE", "soluble on expression in E. coli": "soluble"}
{"sequence": "MSANREKKKLETVIKNLEKKIEDQKANAGTKKKEAEQKENLRIEQEKIKKKKEQERLEVPPTPFDDLNSQSAKTLRVEKAIENLKFLGGKSTEFYRRVIGRLGKSGLFKWKMSKREGFYLYHACGLTRRKLRTLKAHFSKSGCSDPFPSVHEIMKIEKIVGAGEQFSVTEHDKDGEEVVAAHLVDVIKYLTDRIHHLIDNGNLVIGTDPIWLTILGDKGSDEFKLCLSIGNAKNPNSCCHLIPLGIFNDDEKSSNISNDLTPIVAQLNSLKELKLKVAGTDVTVPVQQFLGGDMKFQYDVLGHQGASSQFHCMFCNSLKSRLIGGYIRGANVTLRTAASYKENSGKDGNNYARKKSVSIRSRQSTKCDPRSLHTLMGLAQRFGFDYLILWAARIDNPTLTLTKTDIKRSKISKGRLNQLQESLKKLEKVVSGMETVQQVFQNYKNKRVDGRSCGETCHASICLFKDKKMKSAKGYDGRKVECNTCFQAVHAVCGGLWTLDDWELTISIFRENNRHLNELRSDLREKKSVIFSQGLKIDMLESQLSQRQTEFEYRSANAAANSFTRKDHGKLYHCFDIKNQDSTSVSDTMTCRCSMKPCVFYLDSLPAAKTPSLTQLRRIVVLMQQKPSQKIDPKEMLLMTSMHLPFPMQEPSTEYFNAISGCSTSYICVEEMGIGFSFRRHVEKLWMKNLPPATNGTDKAANDLKNQLKVRRNVGKHDRTSRYARKSHN", "soluble on expression in E. coli": "not soluble"}
